Reference: patent publication US20240241124

Tests used:
[1] = molecular target: T1, SecV sensor, EDANS/DABCYL version (β-sec^V1 strand annealed to ES3) (not fully specified)
T1 chain: RKFEADLNVEERC

[2] = molecular target: T2, SecV sensor, HiLyte-Fluor 488/QXL520 version (β-sec^V2 strand annealed to ES3) (not fully specified)
T2 chain: KFEADLNVEKC

[3] = molecular target: SecV sensor (version not stated)

B1: recombinant human BACE1 (beta-site APP cleaving enzyme 1), purified enzyme (ab271386, Abcam) (protein)
chain: TQHGIRLPLRSGLGGAPLGLRLPRETDEEPEEPGRRGSFVEMVDNLRGKSGQGYYVEMTVGSPPQTLNILVDTGSSNFAVGAAPHPFLHRYYQRQLSSTYRDLRKGVYVPYTQGKWEGELGTDLVSIPHGPNVTVRANIAAITESDKFFINGSNWEGILGLAYAEIARPDDSLEPFFDSLVKQTHVPNLFSLQLCGAGFPLNQSEVLASVGGSMIIGGIDHSLYTGSLWYTPIRREWYYEVIIVRVEINGQDLKMDCKEYNYDKSIVDSGTTNLRLPKKVFEAAVKSIKAASSTEKFPDGFWLGEQLVCWQAGTTPWNIFPVISLYLMGEVTNQSFRITILPQQYLRPVEDVATSQDDCYKFAISQSSTGTVMGAVIMEGFYVVFDRARKRIGFAVSACHVHDEFRTAAVEGPFVTLDMEDCGYNIPQTDESTLMT
fold change in sensor response (G/R ratio), in vitro BACE1 activity assay [1]: A >3.0-fold change in sensor response was observed when EDANS and DABCYL were used as a FRET pair | fold change in sensor response (G/R ratio), in vitro BACE1 activity assay [2]: a >1.8-fold response when HyLite-488 and QXL520 were used as a FRET pair | fold change in the signal (G/R ratio), in vitro specificity assay [2]: upon addition of BACE1 the sensor showed a 1.8-fold change in the signal | lowest amount of BACE1 giving detectable change in sensor signal [3]: The SecV sensor showed detectable changes in signal from 8 ng and remains linear until 80 ng | upper end of linear range of sensor signal against amount of BACE1 [3]: The SecV sensor showed detectable changes in signal from 8 ng and remains linear until 80 ng
